In PMC8525636:

How the values were obtained:
[1] = target: recombinant human IgA1-Fc CH2-CH3-TP, C471S mutant; assay: SEC (size-exclusion chromatography), self-association into poly-hu-rIgA; conditions: parent: est. 9.0; read off a plot
[2] = target: recombinant rat IgA-Fc segment CH2-CH3-TP, C311S mutant; assay: SEC (size-exclusion chromatography), self-association into poly-rIgA; conditions: parent: est. 32; read off a plot
[3] = target: recombinant rat IgA-Fc segment CH2-CH3-TP, C311/471S double mutant; assay: as above; conditions: parent: est. 32; read off a plot
[4] = target: recombinant rat IgA-Fc segment CH2-CH3-TP, C471S mutant; assay: as above; conditions: parent: est. 32; read off a plot

**Q.** “recombinant human IgA1-Fc CH2-CH3-TP, wild type (human rIgA1-Fc) C471S” was tested. Which other: Distribution (%), poly-hu-rIgA share of SEC AUC [1] did it give?
**A.** Its other: Distribution (%), poly-hu-rIgA share of SEC AUC is 4%.

**Q.** For “recombinant rat IgA-Fc segment CH2-CH3-TP, wild type (rat rIgA) C311S”, which other: Distribution (%), poly-rIgA share of SEC AUC [2] is on record?
**A.** Its other: Distribution (%), poly-rIgA share of SEC AUC is 28%.

**Q.** How did the other: Distribution (%), poly-rIgA share of SEC AUC [3] turn out when “recombinant rat IgA-Fc segment CH2-CH3-TP, wild type (rat rIgA) C311S; C471S” was run?
**A.** The other: Distribution (%), poly-rIgA share of SEC AUC was 1.5%.

**Q.** Which other: Distribution (%), poly-rIgA share of SEC AUC [4] does the source give for “recombinant rat IgA-Fc segment CH2-CH3-TP, wild type (rat rIgA) C471S” here?
**A.** Its other: Distribution (%), poly-rIgA share of SEC AUC is 2.5%.
